{"source": "the supplement of paper PMC12455559"}
{"assay": "purified protein yield per well (BCA); higher = higher soluble expression", "outline": "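Values under 25 ug (0.1 mg/mL) are below the detection threshold. Purified protein yield per well was quantified with the Pierce Rapid Gold BCA kit after candidate enzymes, expressed in E. coli C41(DE3), were captured on Ni-charged magnetic beads and released by SUMO protease on an OT-2 robot. Cultures were 2 mL autoinduction with 100 µg/mL kanamycin, run 2 h at 37 °C and then 40 h at 18 °C.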", "units": {"purified protein yield per well": "µg"}}
{"sequence": "CASVASPPAATLAALSGNGSYEVMTYTDFPDVPEFGDATIYYPQDAPAPVGGVAIAPGFTEVQSHISWWGPRLASHGFAVLVLDTNDRRDRPDLRADALIAAVTLLRAENSRSGSPLNSRIDVGKMAIMGHSMGGGGVLLAANEHSDQIQAAIPFTPWVPDVEFGNITVPTLVIAGSADRIANVTDHAWRHF [TEP113]", "purified protein yield per well": "< 25"}
{"sequence": "CATAGSTTDSAPVSAASLSVDGAYEVRTYSDFPDVPEFGAATIYYPVGVPQPIGGVAIAPGFTEEQRHISWWGPRLASHGYAVLVLDTNERRERPDARASALIAGVTLLRAEGLRQGSPLFGGIDLAKMAIMGHSMGGGGALLAANEHSDQIRAAIPFTPWEPETNLGGVSAPTLVLAGAADGIAEVDEHAWRHFSMIPESTPKVYLEIAGGDHYIADTTRGTDLATVGRYAIAWLKLYVDRDERYRDFIYGE [TEP065]", "purified protein yield per well": "< 25"}
{"sequence": "CDSILFQSIASPGPYNVLSIDESDGIRNGQDYNGATIFYPEGNLYNLPSIVFVPGYSNTQFTIQNWGLFLASYGIVTMTIGTNTLIDSHIQRKDALLDALITIKQENVRSSSPLYNSLDTLKLALGGFSKGGGGAQLAASIGQNIKAVIALYPWLENISAVDLNHDVPVLIVSGNLDIIAPPSLHADVHYMYTPETTKKLKYEIAFATHDPLIGPNAGFGEVGKKTLSWLQTFLLGDSCFCPYLLDTPSNASIYMSNLNCTEISTNTYNLESNQEKKILKIIDIFGREVRPKKNMILFYIYNDQSVKKIIIK [TEP139]", "purified protein yield per well": "< 25"}
{"sequence": "CDSILSQSLTNTGPYNVLSINESDGIRNGQHYNGATIFYPEGNLTNLASMVFVPGYSNTQLSIQNWGFFLASHGIVTMTIGTNSLLDSHIKRKDALLDALVTVKQENVRVSSPLYNSLDTLKLALGGFSKGGGGAQLAASVGQNIKAIIALYPWLENISSSDLNHNVPVLIVSGSLDIIAPPSLHADVHYMYTPQTTNKLKYELAFGTHDPLTGPNAGSGEVGKKTLSWLQTFLLSDTCFCPYLLDTPNNASIYMSNLNCTEIGTNTNNLQSNTEKKLVKIIDVFGREVSPKKNMILFYVYDNQSVKKIIIK [TEP094]", "purified protein yield per well": "< 25"}
{"sequence": "CESRRGPDPTRVSVESTAGPFAIATTTVSSGNGFGGGTIYYPTSTAEGRFGGVAIAPGFTKTQSSIAWYGPRLASQGFVVFTIDTNSGLDFPASRGDQLLAALDFLTSSSSVKSRVDANRLAVMGWSMGGGGALEAAKDRPALKAAIPLAGWNTTTEWSSVTVPTLVVACENDSTAPVASHSRPFYDSLTSAQERAFVEMAGAPHGCVTSPTTAVARWTISWLKRFVDGDTRYTQFLCPPPADSTVSTQLTSCPM [TEP177]", "purified protein yield per well": "< 25"}
{"sequence": "CGDRDAGDPAPTESSLTAPLGPEKYRTEVVPRAYVEAFGGGTIYYPAGRPPGERLGAVTIVPGSRGYQSGMAWYGPLLASRGFIVFTIDTLHLKDQPAKRSLELEAALTYLATRSAVASHVDAERLAVMGHSLGGGGTLDLAATRPNLKAAIPLMPYDKAKDFSNVRVPTLVVAAQHDKIAPVGKHAEVFYRSIPASQPKAYLEIAGATHSFPKRRDATLAKYVIAWLKRYVDGDKRYDRFLCPGPQNDPHVARYASDCTPR [DP095]", "purified protein yield per well": "< 25"}
{"sequence": "CGLCKAQTCDTLTLDSIYDPGAYSFATLLESDGIRNGPDYAGATIYYPTNGIPPYPAIAICPGHSTFEYTIQAWGPFYASHGIVTITIGTNSIYDYPDARKNAILDALETVRQENVRSGSPLFGYLDLSRLAVSGWSMGGGGAQLAAAADTTIKAVVGLCPWLESWRTAADLNHPVPTLILSGQIDAIAPPYYHADVHYGYIP [TEP133]", "purified protein yield per well": "< 25"}
{"sequence": "CGTTTSTLTTPAVTPQTLSGAATNPYERGPAPTTALLEAARGPYATASTTVPRSSVSDFGGATIYYPTSTADGTFGGVAISPGYTGTQASVAWLGPRLASHGFVVIVIDTLSRYDYPSSRGDQLRAALRYLTTSSAVRTRVDATRLAVMGHSMGGGGALEAAKDNPALKAAIPLTPWNTDKSWPELTTPTLIFGAQNDSVAPVSSHAIPFYTSLASTLPKAYLELRGASHGAPTSTNTTIAKYAVAWLKRFEDADRRYDPFLCPTPAVSTLLSDARSTCPFN [DP069]", "purified protein yield per well": "< 25"}
{"sequence": "CSEEPHKAGGPWAGPYEVVTQQVSADDADGGFGDGTVRYPDDGSRDYGVIAASPGLGADESTVAPYGELLASHGFVVITIDTKTPEDSPAQRGRQLLRALDYATERSDAADRADPRRLGVLGHSMGGGGALYAAARNPHIRAAVPLTPYATRRDWHRVEAPTLVVGGSDDEVAPVSEYADAFYEGLSGAREKAYLELKGDHFVATPPDGLVSRQVVAWFGHFLAGAPGSPCPLPSGDGVTESRDTCPFGTRGR [TEP179]", "purified protein yield per well": 25.7}
{"sequence": "CSGSTPTAPAAPAPKATAAPNDRPAPTAQVPRSFERGPAPSEKSVTAKRGPFAFEKIEVPAGSGPGFNKGTIYAPTDTSRGTFGAVVMSPGFASPHTWIDWYGPRLASQGFVVMMLETNTLFDVPLLRGRQIVAALDYLTARSVVRGRVDPSRTAVMGHSMGGGGTLEAARQRPGLKAAVPLAPWNPDYNWGGVVVPTMIIGAQRDVIAPTALMSEAYYNRLTAAPEKAYLVLRGAGHLTFMSPNATIAKYVISWMKRFVDNDSRYDRFLCPPPKPRGLLTVYRGTCPTG [DP037]", "purified protein yield per well": "< 25"}
{"sequence": "CTWRGPNPPPATLDAPMGPFTTTSSVVTTSPGFGDGTMYYPDTEPGPFGVVAVAPGWLASQNSLDTLGNRIASHGFVVITIDVNRPRSDGPQSRADQLLAALDQVANEAAVAGIADNTRQAVMGHSMGGGGALYASIDRPALKASIPLAPWARGADFSAVTVPTMIIGCEDDTVAPVGSHAIAFYDAIANTVPKAYAEIADASHSCVNDFNTDPLETAEVASSAVSFLKRFVDNDSRYTPFLCPIPELDPPLSDRRATCPYN [TEP148]", "purified protein yield per well": "< 25"}
{"sequence": "CVFPPAPPPPGSGYTITTVAAGNGFGGGTIYLPEGVTGRRGAVAVVPGFTGTQSTVAWYGPLLAKEGYVVFTIDTNSGWDSPQARGTQLLAALDYLTTQSSAASRVDPARLAVMGHSMGGGGSLEAAKARPSLKAAIPLAGWNSVTNFSTVTVPTLVVA [TEP070]", "purified protein yield per well": "< 25"}
{"sequence": "DANPYQRGPAPTESSVAAEKGPFAVAQTDVPAGSGQGFNDGTIYYPTDTSQGTFGAVVVMPGFVSPQEWIRWYGPLLASQGFVVMTLDSNTLLDFPGARGDQILAALDYLTTKSKVVDRIDTGRLAVMGWSMGGGGTLEAAAERPSLKADIALAPWDLDNVAAKVKVPSMIIADDTDILAPTGVFAKPFYDAMSTAPDKAFFELKSANHFTFTSYNKTIAKYAVSWLKRFVDDDTRYDQFLCPKPAPSNEITQFEETCPLG [TEP059]", "purified protein yield per well": "< 25"}
{"sequence": "DEIGQAPTAANITGDGSFSTSSSAIFGQSGFGGGTAYYPNTAGKYPVVAFAPGFLSDWNALNWLGPRVASWGFVVVGVNTNTPFDFPDARGDQLLAALNWAVNSAPAAVRDKADGSRRGVSGWSMGGGGTLEALAKDTTGTVKAGVPLAPWHTNKTWSKVTEPVFIIGGQNDSVAAPASHAIPFYNSLGGPKSYLERAGADHFFPTKSNGTVSRAVVSFFKRHVSADTRFTPFLCGFSGLDVSNFRSNSC [ESM030]", "purified protein yield per well": "< 25"}
{"sequence": "DEIGQAPTAANITGNGSFAVTSAAVTGASGFGGGTVYYPTTAGTYPVVAIAPGFTQAWSAIQWLGPRLSSWGFVVVGINTNSSLDFPASRGTQLLAALNWAVASAPAAVTSRADGTRRGVAGYSMGGGGTLEALSQDTTGAVKAGVPMAPWHTDTTWQQVTEPVFILGGQNDSTAPVASHAKPMYNSLGGPKTYVELAGAPHSFPRTDNATTSRALVSWFKRWLNGDARFTPFTCGFTGTAISAYQTTAC [ESM099]", "purified protein yield per well": "< 25"}
{"sequence": "DEIGQAPTPSNITGSGSFSTTSSTITGQSGFGGGTVYYPTASGKYPVVAMVPGFLSDWSSISWLGPRVASWGFVVVGANTNSGLDDPTSRGDQLLAALNWAVNSSPTAVRGKTDGTRRGVAGWSMGGGGTLEALAKDTSGVVKAGVPLAPWHNDKSWNQVNEPVFLIGGENDGVASPDSHAIPFYNSLGGPKSFLERAGANHFFPNSSDPTVSRAVVSFLKRHVSADNRFSPYVCGFSGSAVSDFRSNSC [ESM133]", "purified protein yield per well": "< 25"}
{"sequence": "DEIGQAPTSSNITGNGSFSVSTYNISSLVSGFGGGVAYYPTTSGRYPVVAVSPGFTARWSSISWIGPRLASWGFVVVGIETNGLYDQPASRGSQLLAALNWAVNSAPSAITSRADGSRRGVAGHSMGGGGTLEALAADTTGNVKAGVPIAPWNSDKTWSGINEAVQIVGGESDTIASVGSHSIPFYNSVSGPKSYVELNGASHFFPQSTNSTLSRALVSWFKRYLNQDARFTPFTCGYGGTAVSDFRTNAC [ESM151]", "purified protein yield per well": "< 25"}
